Laboratory results published in the domain aggregation screens of Martell et al. (2025).
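Note: 20 min heating vs room temperature control held 20 min.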

Test: soluble fraction after stress (log2 fold change); higher = more stays soluble; pooled small domains, quantitative proteomics
Settings: stress: 75 degC
For “HMVDSTDLIPLLIKVSREKQGNKKLNWGEWLKIPENIYLKQINENIARKVFEDTNDLIDEAVNYINRKRRN”, the “soluble fraction (log2)” value was -0.963.
In the case of “HMVDTEVFSRLLRKVLAGDVTSAIRILEELIVGGRELSQFVGDFTWYMRNLLLVKTSDNPEEA”, the “soluble fraction (log2)” value is reported as -0.463.
With “HMVDYYEILGVSPDASRKDIENAWRKKMREAHPDMGGSEDKAQLLNEAHKVLSDESARAEYDASR” the “soluble fraction (log2)” value was 0.181.
With “HMVELPDLIGKSKRLAFTQLEISGLKIGKIIYEPDLAKDAVLKILYNGKIVKAGEQLPRFATVDLVLG” the “soluble fraction (log2)” value was -2.11.
With “HMVEMIGLQMVGKSGIASTVLRPSGKVRIDGVVYDAVSEDGFIEKGQAVKVLRYETGQVYVEKL” the “soluble fraction (log2)” value was -0.727.
In the case of “HMVEPIEESISQLSLLLQSLYEDGKSEVSFEELIRSDRSRVSLFLALLFMAQRGNVYLEQEELFGDLRVKN”, the “soluble fraction (log2)” value is reported as 0.0329.
In the case of “HMVEREYRLEVPPEAEGKRLDQFLVNQPVQLSRSQVQHLIQNGLVLVNAKTRRSSYRVHTGDIIEMQVPA”, the “soluble fraction (log2)” value is reported as 0.121.
In the case of “HMVERQVTVPNLTGLGVADAQRLAQSMELDIEVLGEQESTDARPGAVLQQTPGAGTRAAAGSVVSVLV”, the “soluble fraction (log2)” value is reported as 0.201.
With “HMVEVPEQLRDLLERSIEDLAELSVRSRNSLQKENIQTLGDLVQRTEEEMLGIENFGKKSLTEIAAFL” the “soluble fraction (log2)” value was -0.217.
For “HMVEYFDDENLDAFIGRESDSYTEKEIEQFREILYTMNQKEVADWNRSLTIRGINIPNDLKDEMIMMI”, the “soluble fraction (log2)” value was -0.225.
With “HMVEYIENINLSEKQKFIAHEILKEIRGRAIFLRDVGLDYLNLSRKAGTLSGGEAQRIRLATQIGSA” the “soluble fraction (log2)” value was 0.198.
With “HMVFKSAQEGLDFYSKQLNDVDATLGRIRRGEESGNGLYGSNRVKNLEEQRKKLDSFVTAYRNAVNAT” the “soluble fraction (log2)” value was 0.0212.
With “HMVFTEEEMLEKIKEYLSTNSYINRRAMETLFNLRQSTALKWLGHFTEIGVLRKEGERNYPVYFLNN” the “soluble fraction (log2)” value was -0.972.
With “HMVGADTISDLISQRGRMIGDKPITNAVIKSGSEFSTINALSKAIASGDARTNDVEGMKPVFR” the “soluble fraction (log2)” value was -0.126.
For “HMVGKGASIILDRVNLPQYLEKFNEDGFDTIESLKNLNEIDLKEMGVKKGHIRVILNYLHEEY”, the “soluble fraction (log2)” value was -0.421.
In the case of “HMVGLKWYDTGNKKPPIGTEYKNTELSEALKGHDRKEFTWKELDVLGVNITDKEQYIVVGENYYTQV”, the “soluble fraction (log2)” value is reported as 0.0506.
In the case of “HMVGPAHIGLAVAKDQLPHWERHLTANGVEIEGRMRWDHGGESIYFRDPDAHLLELVTPGIWAN”, the “soluble fraction (log2)” value is reported as 0.0383.
In the case of “HMVGVDMTVKEEVGKEGVTFTDLRPAGKVEIGNDIYDAVSNTGAFIQKGEKVKIIKYQAGQVYVEKLV”, the “soluble fraction (log2)” value is reported as 0.00838.
In the case of “HMVIANADVRAKFSKGKDSFVKYYFKEKVLKDGFTEEVKNNIVQALFYLQIVTRIDGESGVLIIDY”, the “soluble fraction (log2)” value is reported as 0.123.
In the case of “HMVIDETVLIDLFERLAEDDRPQRVAFRYILALVLLRKRTLQLIGREDEDDGEIWLLRFKGTDGEPIRV”, the “soluble fraction (log2)” value is reported as -0.463.
For “HMVIGKHSGSHTLVNDLAKRGITLDKEESATLLEMVRKAAVGLHRSISSDELYGLYKDMKSGQDPFEDS”, the “soluble fraction (log2)” value was 0.139.
In the case of “HMVINVKEILERIKLVKGFHTQIEIARFLGVSKGTISNWLARNSVDFPLVISKLDGVDLNWLFTGIGMPQ”, the “soluble fraction (log2)” value is reported as -3.77.
For “HMVISNDEFEDYLNRATEQLVSELSSGKNPRDAVHDLALTFADQHNKSYDAYQRMADSLEARMHTL”, the “soluble fraction (log2)” value was 0.0871.
With “HMVITEQTVTVKYLYEDDTEAAPEHSETHKTGETFEIESPKIDGFTPDYELITGTIANDDLVYIVRYKTTP” the “soluble fraction (log2)” value was -0.487.
With “HMVITQVSTTQTDTTFQYHKVKPKETLFSISRLYEVSIDEIKTINPALNSRELMAGELLKLPIK” the “soluble fraction (log2)” value was -1.4.
With “HMVKGIVPNLIGKTQDEAKQMAEEYGFSIGTVSEKASDKPKGTVIEQSPKAGAKASGVTSINIVVSDGS” the “soluble fraction (log2)” value was -0.121.
For “HMVKKYEKVKEYLLERILDGTYVPDLPIPPERELASLLDVNRMTVRRAVEELMYDGYLIRKKGSGTYLTR”, the “soluble fraction (log2)” value was -1.6.
For “HMVKLSVGDIVQFAGGPHYVSSSAAKPASSPTAGPAKVTMIYQGAKHPYHIVHTTSASTVWGWVDADKVVK”, the “soluble fraction (log2)” value was 0.0767.
For “HMVKNLRKLREELGLTQQRLAELTGISKSRIYSYESLDREPDIAGLITLADFFSVSIDYLVGK”, the “soluble fraction (log2)” value was -2.66.
With “HMVKPKIILADIGMITETDVTLAKASQAVLIAFNVKPSKEAKKLAEDENIKISTYNIIYEVLDFVKKSMSG” the “soluble fraction (log2)” value was 0.304.
With “HMVLALRGIVQGGAEPLVILSDGRTSQSLAVGERFLAYEVVEIGRTGVRLRGPEGEIWLAMASF” the “soluble fraction (log2)” value was -1.2.
For “HMVLANLQAAEQGDLGIKEGEKLTILQTRPDGWWTARNANGETGLVPK”, the “soluble fraction (log2)” value was 0.186.
For “HMVLFDLSEREKEVLKLLADGNSYKMIASRLEITYFTVNAHLKKIYEKLQVHSASEAVSVALRNSL”, the “soluble fraction (log2)” value was -1.19.
For “HMVLIQNEDVKDISNYPLLSSVPVFDVFNNKMIIPTFNKDSFNPLIYNFNFNSKRRLIYRVDNTNYLIVIK”, the “soluble fraction (log2)” value was 0.0494.
In the case of “HMVLMPIDALRGSSSSSEMRIAAVKFSPSKGWYFSLQERSDEGSSYYEQKVASDGSVSERVKVR”, the “soluble fraction (log2)” value is reported as -0.58.
In the case of “HMVLNVMIEEEVHREIIAAISKLPKERRRVVELSMAGFSQEEIAEKMAISVNTVKTIKLRAYRVLRERLKG”, the “soluble fraction (log2)” value is reported as -3.78.
For “HMVLPELRLQGLPTAVLRLINRATALADDYRRLMEIAEDGRIDEWEAPEFERISENIQRVIAAGFEVL”, the “soluble fraction (log2)” value was 0.0637.
For “HMVLQHHTATKALSYHTSASASAAVKGSFARGDSVQVVQGGSQTADGAKWHKVKVGSSYYYAAAEHLTP”, the “soluble fraction (log2)” value was ≥ 1.04.
In the case of “HMVLTYYSVLGVKTDATTEEIKSTYKQLAIRNHPDRGGSEEVMKMINLAAEILSDPKSRKEYDLSLDA”, the “soluble fraction (log2)” value is reported as -2.06.
For “HMVLVLPGEMIHVQVIDEGKEMGQGVGYLDDGTMVVVENGLRHIGRAIDVQVTKVLQTNAGRMIFGQPIL”, the “soluble fraction (log2)” value was -1.71.
With “HMVMAELRISVDRLQIGNYIKLPLSWRDHPFLLSSFMIKKEEQIQLIRQLRLKHVFIIPEKSDAPPKPA” the “soluble fraction (log2)” value was -4.2.
With “HMVMNYKKIGKKIADRRILLGITQEELAEKVDSSANYISNIETGIKSGSLIFYIKVANELKLSLDFLFSDE” the “soluble fraction (log2)” value was -3.09.
With “HMVMPTGRVRYYDAEKGFGFLSKDSGGDDVYVRSSALPAGVTSLKRGQKVEFGIIDGKRGEQALSVHLL” the “soluble fraction (log2)” value was -0.202.
For “HMVMTTVPEVLGMDIRTAASMLTGKNLKYDYDLVESDKPKDEVIEQDQAKGTEVPEGTVVKLKVSKGPA”, the “soluble fraction (log2)” value was 0.143.
In the case of “HMVMTTVPEVLGMDISKAASLLTGKNLDYDYDLVESDKPKDQVIEQDVVKGTEVPEGTVIHLKVSKGPA”, the “soluble fraction (log2)” value is reported as 0.258.
With “HMVMVVDVLKALSNNSSDKFFNTSISNAIKAQEDSQEDFVTLFGIEYEKLSPNNGLAVIFTSQ” the “soluble fraction (log2)” value was 0.865.
For “HMVNDDTIAATEAEILALLADKHRHHITELNSIRRPYEQIDAALSSLINEEKIFQEDGMLFV”, the “soluble fraction (log2)” value was 0.543.
For “HMVNGEFIDRIKVILQENNATRKKDRLTKTRMYQLLQEEGYEGSYSAFTYQVRIIEEELGINNK”, the “soluble fraction (log2)” value was -2.31.
With “HMVNSIQIHKKLRLDKRAGSDNWYARLTLPNGKRLVKTTKTEDIETAKEVALRLYYEVDARIQNKLPAT” the “soluble fraction (log2)” value was -1.72.
In the case of “HMVPADVQHLRDIVDTMTEKQQLVYKLHVLEGYTFTEIAKLMGTSIPNVKKHYDKAILFIKNNF”, the “soluble fraction (log2)” value is reported as -1.79.
With “HMVPEEEATKISVQNVGASDYNFTVKGVQANDPTLTLVRGKTYEFDVTSLGHPFWIKTQKVTGSSSQY” the “soluble fraction (log2)” value was 0.354.
With “HMVPLSPRFFDIFRKRKDLTRQNVDVYFRDHPTEITAFERYIKGLVSQSYIPAERADALLLVASQYKAK” the “soluble fraction (log2)” value was -1.58.
For “HMVPSTAVIFTELVSMRSEPATKSPVTHQLTKGTAITINEEKDGWYQVTDQTGNSGWIVKWAVKPTYFTNP”, the “soluble fraction (log2)” value was -0.967.
With “HMVPTYEAYVGKEGLVVGTLRPAGTAEFDGERLDVVSEGEYLEAGTRVQIVRTEGRRIVVRKIN” the “soluble fraction (log2)” value was -0.275.
For “HMVPVVGTTIPHEFIGKFGSARVMLKPAVEGSGVIAGGSARAVLELAGYKDIKTKVLGTNNPRNVVYATMN”, the “soluble fraction (log2)” value was 0.238.
